Measurements: US20080138339A1 (DONGGNAN HAOFA BIOTECHNOLOGY DEVELOPMENTAL, published 2008)

Biological target: T1, OC183B2 (antigens associated with ovarian carcinoma) (human)
T1 construct: It is treated here as a protein antigen; also called HRP-OC183B2
Experiment: direct ELISA; plate coated with bispecific antibody, HRP-OC183B2 added, read at 492 nm
Experimental: The antigen-binding activity of anti-ovarian carcinoma scFv in bispecific antibody was assayed by direct ELISA. ELISA plate was coated with bispecific antibody at 4° C. overnight. Wells coated with anti-ovarian monoclonal antibody were set as positive control. Plate was washed 3 times with PBST (PBS-0.05% Tween 20) for 5 min. HRP-OC183B2 diluted in 3% goat serum was added and incubate at 37° C. for 1 h. After washing plate 3 times with PBST, the substrate of HRP was added and incubated for 20 min at room temperature in the dark. 2M H2SO4 was added to stop the reaction. All the values of OD492 of bispecific antibody were 2.5 times higher than those of negative control and changed with gradient among the different dilution of bispecific antibody.

B1: anti-human ovarian carcinoma x anti-human CD3 bispecific antibody (bispecific antibody, not shown: a dimerising Fc or GST)
chain: EVQLQESGPEVKKPGETVRISCKASGYTFTTAGMQWVQKMPGKGLKWLGWINTNSEVPKYAEDFRGRFAFSLETSASTAYLQISNLKNEDTATFFCARSFTWGTMDYWGQGTTVTVSSGGGGSGGGGSGGGGSDVVMTQTPLSLPVSLGDQASISCRSSQTLVHSIGNTYLHWYLQKPGQSPKLLIYKVSNRFSGVPDRFSGSGSGTDFTLKISRVEAEDLGVYFCSQSTHVPYTFGGGTKLELKEIVLTQSPATLSLSPGERATLSCSASSSVSYMNWYQQKPGQAPRRWIYDTSKLASGIPARFSGSGSGTDFTLTISSLEPEDFATYYCQQWSSNPFTFGGGTKVEIKRGGGGSGGGGSGGGGSQVQLVQSGAEVRKPGASVRVSCKASGYTFTRYTMHWVRQAPGHGLEWIGYINPSRGYTNYNQKFKDRVTMTTDKSFSTAIMDLRSLRSDDSAVYYCARYYDDHYCLDYWGQGTTVTVSSHHHHHH
notes: Single polypeptide expressed from pAMAB in E. coli G1724, about 52 kDa; Order: anti-ovarian scFv, interlinker, anti-CD3 reshaped scFv, 6 His; also called BsAb; ScBsAb
  OD492 relative to negative control: 2.5 times
